The results in this text go back to PMC9351521 (Proceedings of the National Academy of Sciences of the …, 2022).

Common to all, as to conditions: both partners purified
In experiment [1] the target is T1, His-tagged SARS-CoV-2 RBD T332-K529 with Pro-527 omitted (SARS-CoV-2, wild-type RBD (P0DTC2 …)).
T1 construct: also called isolated RBD
Nature of the experiment: crystal structure.

Experiment [2] concerns the target T2, SARS-CoV-2 spike receptor binding domain, His-tagged (T332-K529 with Pro-527 omitted) (SARS-CoV-2, wild-type RBD (P0DTC2 …)).
T2 construct: also called RBD
Nature of the experiment: ITC; […]; iTC200, 25 °C, PBS; […].

The target of experiment [3] is T1, His-tagged SARS-CoV-2 RBD T332-K529 …. Nature of the experiment: ITC.
The target in experiment [4] is biotinylated RBD (wild type) (SARS-CoV-2, wild-type RBD (P0DTC2 …)). Nature of the experiment: SPR; […]; Biacore T200, PBS pH 7.4 with 0.005% P20, 25 °C. Background: SPR reads the build-up and loss of mass on a sensor chip optically.
For experiment [5], the target named is T2, SARS-CoV-2 spike receptor binding …. Nature of the experiment: ITC; […]; iTC200, 25 °C, PBS; […]. The source holds these as a separate data set.
In experiment [6] the target is T3, SARS-CoV-2 spike glycoprotein ectodomain (amino acids 1 to 1,208, GSAS, PP, T4 fibritin trimerization domain) (SARS-CoV-2, P0DTC2 sequence with GSAS …, RRAR > GSAS at residues 682 to 685 | KV > PP at residues 986 to 987).
T3 construct: also called trimeric spike protein
Nature of the experiment: ITC; […]; iTC200, 25 °C, PBS; […]. On the technique in general: ITC needs no label: the signal is the heat of the interaction.

The target of experiment [7] is T4, SARS-CoV-2 spike glycoprotein ectodomain (amino acids 1 to 1,208, RRAR > GSAS, KV > PP, T4 fibritin … (SARS-CoV-2, P0DTC2 sequence with GSAS …, RRAR > GSAS at residues 682 to 685 | KV > PP at residues 986 to 987)).
T4 construct: also called Spike protein; trimeric spike protein
Nature of the experiment: ITC.

In the next experiment the target is biotinylated RBD (SARS-CoV-2, wild-type RBD (P0DTC2 …)). Nature of the experiment: SPR; Biacore T200, PBS pH 7.4 with 0.005% P20, 25 °C; […]; 1:1 binding model.

B1: nanobody F2 (VHH)
VHH: QVQLVESGGGLVQAGGSLRLACIASGRTFHSYVMAWFRQAPGKEREFVAAISWSSTPTYYGESVKGRFTISRDNAKNTVYLQMNRLKPEDTAVYFCAADRGESYYYTRPTEYEFWGQGTQVTVSS
Turning to B1, in experiment [1], the binding result was “binds”.

B2: H11-A10 (VHH)
VHH: QVQLVESGGGLMQAGGSLRLSCAVSGRTFSTAAMGWFRQAPGKEREFVAAIRWSGGSAYYADSVKGRFTISRDKAKNTVYLQMNSLKYEDTAVYYCAGFSATRSLLSDYATWPYDYWGQGTQVTVSS
A word on the stoichiometry N: it is the number of molecules, sites or subunits per partner or assembly. As for B2, the “stoichiometry N” value in experiment [2] is 1.

B3: nanobody H11-A10 (VHH)
VHH: QVQLVESGGGLMQAGGSLRLSCAVSGRTFSTAAMGWFRQAPGKEREFVAAIRWSGGSAYYADSVKGRFTISRDKAKNTVYLQMNSLKYEDTAVYYCAGFSATRSLLSDYATWPYDYWGQGTQVTVSS
A word on the Kd: it is the concentration at which binding is half-saturated. Lower therefore signals a tighter complex. On to B3, for which, in experiment [3], binding was characterised by a dissociation constant (Kd) of 60 ± 4.6 nM and the dH was -19.8 kcal/mol.

B4: H11-H4 R52E (VHH)
VHH: QVQLVESGGGLMQAGGSLRLSCAVSGRTFSTAAMGWFRQAPGKEREFVAAIEWSGGSAYYADSVKGRFTISRDKAKNTVYLQMNSLKYEDTAVYYCAQTHYVSYLLSDYATWPYDYWGQGTQVTVSS
Regarding B4, the binding result in experiment [4] was “no binding (tested: 1 µM)”.

B5: H11-H6 (VHH)
VHH: QVQLVESGGGLMQAGGSLRLSCAVSGRTFSTAAMGWFRQAPGKEREFVAAIRWSGGSAYYADSVKGRFTISRDKAKNTVYLQMNSLKYEDTAVYYCAGSKITRSLLSDYATWPYDYWGQGTQVTVSS
As to B5, the “stoichiometry N” value in experiment [5] turned out to be 1.

B6: nanobody H11 (VHH)
VHH: QVQLVESGGGLMQAGGSLRLSCAVSGRTFSTAAMGWFRQAPGKEREFVAAIRWSGGSAYYADSVKGRFTISRDKAKNTVYLQMNSLKYEDTAVYYCAQTRVTRSLLSDYATWPYDYWGQGTQVTVSS
notes: also called parent H11; parent nanobody
B6: the binding result in experiment [1] is on record as “binds”.

B7: H11-H4 R52A (VHH)
VHH: QVQLVESGGGLMQAGGSLRLSCAVSGRTFSTAAMGWFRQAPGKEREFVAAIAWSGGSAYYADSVKGRFTISRDKAKNTVYLQMNSLKYEDTAVYYCAQTHYVSYLLSDYATWPYDYWGQGTQVTVSS
B7: the binding result in experiment [4] is “no binding (tested: 1 µM)”.

B8: nanobody H11-H6 (VHH)
VHH: QVQLVESGGGLMQAGGSLRLSCAVSGRTFSTAAMGWFRQAPGKEREFVAAIRWSGGSAYYADSVKGRFTISRDKAKNTVYLQMNSLKYEDTAVYYCAGSKITRSLLSDYATWPYDYWGQGTQVTVSS
In experiment [3], B8 displayed a Kd of 57 ± 4.5 nM and a dH of -19.1 kcal/mol.

B9: nanobody H11-B5 (VHH)
VHH: QVQLVESGGGLMQAGGSLRLSCAVSGRTFSTAAMGWFRQAPGKEREFVAAIRWSGGSAYYADSVKGRFTISRDKAKNTVYLQMNSLKYEDTAVYYCASYQATRSLLSDYATWPYDYWGQGTQVTVSS
In experiment [3], B9 yielded a Kd of 53 ± 5.3 nM and a dH of -16.3 kcal/mol.

B10: nanobody H11 V101Y R103S (VHH)
VHH: QVQLVESGGGLMQAGGSLRLSCAVSGRTFSTAAMGWFRQAPGKEREFVAAIRWSGGSAYYADSVKGRFTISRDKAKNTVYLQMNSLKYEDTAVYYCAQTRYTSSLLSDYATWPYDYWGQGTQVTVSS
notes: also called double mutant A101Y, R103S
As to B10, in experiment [3], binding was characterised by a dissociation constant (Kd) of 5220 nM and the dH is -11 kcal/mol.

B11: H11-H4 R52K (VHH)
VHH: QVQLVESGGGLMQAGGSLRLSCAVSGRTFSTAAMGWFRQAPGKEREFVAAIKWSGGSAYYADSVKGRFTISRDKAKNTVYLQMNSLKYEDTAVYYCAQTHYVSYLLSDYATWPYDYWGQGTQVTVSS
As to B11, in experiment [4], the binding result is recorded as “no binding (tested: 1 µM)”.

B12: H11-H4 Q98R H100E (D4 hybrid) (VHH)
VHH: QVQLVESGGGLMQAGGSLRLSCAVSGRTFSTAAMGWFRQAPGKEREFVAAIRWSGGSAYYADSVKGRFTISRDKAKNTVYLQMNSLKYEDTAVYYCARTEYVSYLLSDYATWPYDYWGQGTQVTVSS
With B12, the “stoichiometry N” value in experiment [5] and in experiment [6] was 1 throughout.

B13: nanobody H11-H4 Q98R H100E (D4 hybrid) (VHH)
VHH: QVQLVESGGGLMQAGGSLRLSCAVSGRTFSTAAMGWFRQAPGKEREFVAAIRWSGGSAYYADSVKGRFTISRDKAKNTVYLQMNSLKYEDTAVYYCARTEYVSYLLSDYATWPYDYWGQGTQVTVSS
notes: also called H4-D4 hybrid; hybrid nanobody
As for B13, the Kd in experiment [3] came to 18 ± 1 nM; in experiment [7], 21 ± 3 nM. The dH is -16.5 kcal/mol in experiment [3] and -14.8 kcal/mol in experiment [7]. Besides, the t1/2 with biotinylated RBD amounted to 29 s.

B14: H11-H4 Y104S (VHH)
VHH: QVQLVESGGGLMQAGGSLRLSCAVSGRTFSTAAMGWFRQAPGKEREFVAAIRWSGGSAYYADSVKGRFTISRDKAKNTVYLQMNSLKYEDTAVYYCAQTHYVSSLLSDYATWPYDYWGQGTQVTVSS
On to B14, for which, in experiment [2], the “stoichiometry N” value worked out at 1.

B15: H11 V101Y R103S (VHH)
VHH: QVQLVESGGGLMQAGGSLRLSCAVSGRTFSTAAMGWFRQAPGKEREFVAAIRWSGGSAYYADSVKGRFTISRDKAKNTVYLQMNSLKYEDTAVYYCAQTRYTSSLLSDYATWPYDYWGQGTQVTVSS
Regarding B15, the “stoichiometry N” value in experiment [2] worked out at 1.

B16: nanobody H11-H4 Y104S (VHH)
VHH: QVQLVESGGGLMQAGGSLRLSCAVSGRTFSTAAMGWFRQAPGKEREFVAAIRWSGGSAYYADSVKGRFTISRDKAKNTVYLQMNSLKYEDTAVYYCAQTHYVSSLLSDYATWPYDYWGQGTQVTVSS
For the molecule B16, in experiment [3], the equilibrium dissociation constant (Kd) is 409 ± 91 nM and the dH was -11 kcal/mol.

B17: H11-B5 (VHH)
VHH: QVQLVESGGGLMQAGGSLRLSCAVSGRTFSTAAMGWFRQAPGKEREFVAAIRWSGGSAYYADSVKGRFTISRDKAKNTVYLQMNSLKYEDTAVYYCASYQATRSLLSDYATWPYDYWGQGTQVTVSS
Take B17: in experiment [2], the “stoichiometry N” value is 1.
